Results as given in PMC13365404 (npj Viruses, 2026).

Legend:
Conditions in all cases: one partner purified
[1] = molecular target: T1, SUDV GP, full-length transmembrane glycoprotein expressed on MDCK SIAT-1 cells (Sudan virus, Gulu 2000 (YP_138523.1), UniProt Q7T9D9); assay: immunostaining of cells or tissue
T1 construct: source: MDCK SIAT-1 cell line expressing GP (generated previously), on the cell surface

[2] = molecular target: T2, BDBV GP, full-length transmembrane glycoprotein expressed on MDCK SIAT-1 cells (Bundibugyo virus, Butalya-811250 …, UniProt B8XCN0); assay: immunostaining of cells or tissue
[3] = molecular target: RESTV GP expressed on MDCK SIAT-1 cells (Reston virus, isolate ; …, UniProt Q66799); assay: immunostaining of cells or tissue
[4] = molecular target: T3, TAFV GP, full-length transmembrane glycoprotein expressed on MDCK SIAT-1 cells (Taï Forest virus (YP_003815426.1), UniProt Q66810); assay: immunostaining of cells or tissue
[5] = molecular target: T4, EBOV GP (Mayinga), full-length transmembrane glycoprotein expressed on MDCK SIAT-1 cells (Ebola virus, Mayinga (NP_066246.1), UniProt Q05320); assay: immunoprecipitation
[6] = molecular target: T4, EBOV GP (Mayinga), full-length …; assay: immunostaining of cells or tissue
[7] = molecular target: T2, BDBV GP, full-length transmembrane …; assay: immunoprecipitation
[8] = molecular target: T3, TAFV GP, full-length transmembrane …; assay: immunoprecipitation

Measured: binding result

B1: mAb 11883 (recombinant rabbit IgG) (antibody, V domains shown)
VH: QEQLVESGGGLVQPEGSLTLTCTASGFSFSSNCWRCWVRQAPGKGLEWIACVCAGRSGGTTYYASWAKGRFTISKTSSPTVTLQMTSLTAADTATYFCARAGYDDYGDASFFNLWGPGTLVTVS
VL: AVVLTQTASPVSTPVGGTVTIKCQASQNIYSNLAWYQQKPGQPPKLLIYSASTLASGVPSRFKGSGSGTEYTLTISDLECADAATYYCQRYYYLSGSADNTFGGGTEVVVK
notes: source: HEK293F, transfected, purified (Protein A)
binds: [1] | [2] | [3] | [4] | [5]

B2: mAb 11886 (recombinant rabbit IgG) (antibody, V domains shown)
VH: QSVEESGGRLVTPGTPLTLTCIVSGFSLSNYYMSWVRQVPGKGLEWIGVIGWSGTSSYASWAKGRFTISKTASTTVDLKITSPTTEDTATYFCARVLYIGGGFNYYDAFDPWGPGTLVTVS
VL: DVVMTQTPASVSEPVGGTVTIKCQASQSIGSNLAWYQQKPGQPPKLLIYAASTLASGVPSRFKGSGSGTEFTLTISDLECADAATYYCQCTYYDSSYVYNNFGGGTEVVVK
notes: as for B1
binds: [1] | [3] | [6] | [7] | [8]
